Measured values from the supplement of paper PMC9170038.

Test system: MS2 coat protein
Assay: apparent KD of MS2 coat protein; designed switch direction (-1 OFF switch, 1 ON switch): 1; higher = weaker reporter binding
Procedure, shortened: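 Designed RNA switches sharing common flanks were transcribed on Illumina chips by stalled E. coli RNA polymerase. They were titrated with SNAP-549-labelled MS2 coat protein, from 0.7 or 1.5 nM doubling to 3 µM, in Tris-HCl pH 7.5 buffer with KCl, MgCl2, BSA, DTT, tRNA and Tween-20. Titrations ran without input, with 200 uM small-molecule ligand, or with an oligonucleotide input. The apparent KD of each design is the median over its clusters, after curve-fitting of normalised cluster fluorescence.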

[1] = Eterna round: R95, input ligand: FMN 200 uM
[2] = Eterna round: R95, input ligand: microRNA oligo, concentration not stated
[3] = Eterna round: R95, input ligand: none
[4] = input ligand: microRNA oligo, concentration not stated

| Sequence | apparent KD of MS2 coat protein [1] [nM] | apparent KD of MS2 coat protein [2] [nM] | apparent KD of MS2 coat protein [3] [nM] | apparent KD of MS2 coat protein (input ligand: FMN 200 uM) [nM] | apparent KD of MS2 coat protein [4] [nM] | apparent KD of MS2 coat protein (input ligand: none) [nM] |
| --- | --- | --- | --- | --- | --- | --- |
| AAGUUAAGCUUUUUGUUCUGCCUAUUCUAACAUGAGGAUCACCCAUGUAGUCAGACGACUGCGUGUGUAGUUGAGAU [JR_SHM208A_Sub029] (puzzle: Sensor for hsa-mir-208a) | 121 | 194 | 111 | – | – | – |
| GGAUGACGGACAGGAUAUUGAUUCUAAUGGUUUCAAGAAGGGUCUUCGAUAUAAACGACCAGUUACAUGAGGAUCACCCAUGUU [JR_SSNG1_Sub033] (Eterna round: R96, puzzle: Same State NG 1) | – | – | – | 25.9 | 66 | 45 |
| AGACACAUGAGGAUCACCCAUGUUACGAGCUUAGCUCGGACACAGGAUAUCCGGUCCUAGAGACCGGAGAAGGGUGCCUGAUAA [Zara MOD3] (Eterna round: R96, puzzle: Same State NG 3) | – | – | – | 568 | 678 | 765 |
| GCUAGAAUUAAAGCCAACAUGAGGAUCACCCAUGUAUGUUGGUAGGAUAUCGUUUGCUUUGCAAACGAGAAGGGCCAAACUAGC [JL SSNG3 1.07] (Eterna round: R96, puzzle: Same State NG 3) | – | – | – | 64.7 | 142 | 111 |
| UGUUGUAUUACAGGAUAUCUAGUAUUUUUUUUUAGAGAAGGGUAUUCACAUGAGGAUCACCCAUGUAUAUACGAGGAAGUUGUG [JMF's solution 46] (Eterna round: R96, puzzle: Same State NG 1) | – | – | – | – | 46.1 | – |
| CCUGCGAUAAGCGAGCGAACAUGAGGAUCACCCAUGUGGCGGCAGGAUAUGGGUGACCCAGCGACUCAGAAGGGCCGAAGCUAA [Eternabot solution 8] (Eterna round: R96, puzzle: Same State NG 3) | – | – | – | 49.1 | 11.9 | 23.2 |
| GUUAGGAAUCUAGCAAACAUGAGGAUCACCCAUGUUAGUGGGAAGGAUAUGGUACAGAAACUGUACCAGAAGGUCUUAUUGUUU [Omei SS(NG) 3 AV9] (Eterna round: R96, puzzle: Same State NG 3) | – | – | – | 580 | 403 | 439 |
| UUAAUUAAUUAAUUAUACAUGAGGAUCACCCAUGUAAGUGAUCAGGAUAUCAGCUCGAAUAGAGCUGAGAAGGGAUACAUGUAA [SSNG3/13-A1] (Eterna round: R96, puzzle: Same State NG 3) | – | – | – | – | 148 | – |
| GUGCUCGUGUAAGGAUAUGCAGCCGUUUCGGCUGCAGAAGGUACUAUAAUACAUGAGGAUCACCCAUGUCUCUUUUGUUUGGUG [salish99_SSNG1_r04_907] (Eterna round: R96, puzzle: Same State NG 1) | – | – | – | 234 | 111 | 222 |
| GCUUGCGGCGCAGGAUAUGGGUGCCUGUACAUGAGGAUCACCCAUGUUAAGGGACGGAUUACGAACCAGAAGGGCGUGGCGGGC [Ceerce] (Eterna round: R96, puzzle: Same State NG 2) | – | – | – | 47.8 | 108 | 430 |
| GUGGAGAAUUAAGGAUAUCGAGUCAAGAUGUUAAACAUGAGGAUCACCCAUGUGGGUUGCGGUAUCGAGAAGGUAAAUUACGGG [salish99_SSNG2_r04_504] (Eterna round: R96, puzzle: Same State NG 2) | – | – | – | 28.3 | 25.1 | 34.1 |
| CCGAUGGUAUACUAGGAUAUGGGCGCCCUUACAUGAGGAUCACCCAUGUUAUCACAAAUCCGCGGCCAGAAGGAGUUCAUGGGAG [Ustiririra] (Eterna round: R96, puzzle: Same State 2) | – | – | – | 165 | 173 | 138 |
| GUGGCGGGUUGAGGAUAUUGGUUGCCUCUGUUUUACAUGAGGAUCACCCAUGUGGGUUGCGGUUUCGAGAAGGGAGGUUGCUGG [salish99_SSNG2_r04_054] (Eterna round: R96, puzzle: Same State NG 2) | – | – | – | 323 | 420 | 399 |
| UGUUGUAUUACAGGAUAUCUAUUGUUUUCAUUUAGAGAAGGGUAUUCACAUGAGGAUCACCCAUGUAUAUACGAGGAAGUUGUG [JMF's solution 78] (Eterna round: R96, puzzle: Same State NG 1) | – | – | – | 42.1 | 33.1 | 39.9 |
| UACAUGAGGAUCACCCAUGUAGUCCAUGCACCGGACCGAAGCGAGGAUAUGGUCUGCAUCGGUGGCCAGAAGGCGCUUCCAGAA [Eternabot solution 26] (Eterna round: R96, puzzle: Same State NG 3) | – | – | – | 24.7 | 21.3 | 46.7 |
| UACAAUCUAUCUGAGGAUAUCAUGAACAAAACAUGAGGAUCACCCAUGUGCAGGAAAACUGCAUAUGAGAAGGCAGAUAGAUUGU [Mat - Same State 2 - Mod - D22] (puzzle: Same State 2) | 51 | 1560 | 876 | – | – | – |

| Sequence | apparent KD of MS2 coat protein [1] [nM] | apparent KD of MS2 coat protein [2] [nM] | apparent KD of MS2 coat protein [3] [nM] | apparent KD of MS2 coat protein (input ligand: FMN 200 uM) [nM] | apparent KD of MS2 coat protein [4] [nM] | apparent KD of MS2 coat protein (input ligand: none) [nM] |
| --- | --- | --- | --- | --- | --- | --- |
| UUGAGGAAUUAAGGAUAUUGAGUACAUAUGUUUAACAUGAGGAUCACCCAUGUGGGUUGCGGUAUCGAGAAGGUAAAUUACAAG [Mat - same State NG 2 - JL mod - D74] (Eterna round: R96, puzzle: Same State NG 2) | – | – | – | – | 97.8 | – |
| UAUGAAUUGCAAGGAUAUUGAUAACAUGAGGAUCACCCAUGUAAUUGAUCGAGUUAGAUCAGUUACAAGAAGGUGCUAUUGAUU [JR_SSNG2_Sub036] (Eterna round: R96, puzzle: Same State NG 2) | – | – | – | 534 | 24.5 | 90.7 |
| UACAAUCUAUCUGAGGAUAUCAUGAAUAUAACAUGAGGAUCACCCAUGUGCAGGAAAACUGCAUAUGAGAAGGCAGAUAGAUUGU [salish99_ss2_r3_068] (puzzle: Same State 2) | 61.3 | 49.2 | 109 | – | – | – |
| GAGUAGUUAAAAGGAUAUUGAUUAUUGUAGGAUCAAGAAGGUUUUAACAUGAGGAUCACCCAUGUAGGACUAUAAAUGUGAAAA [Parity 93 - Jieux - Same State NG 1] (Eterna round: R96, puzzle: Same State NG 1) | – | – | – | – | 12.5 | – |
| UAGAGAGGAAGCGAGGAUAUCGUGUUAGGUACAUGAGGAUCACCCAUGUUUUAAGUAGAGAUAGGCGAGAAGGCGCAGGAGAAAA [JR_SS2_Sub088] (puzzle: Same State 2) | 28.6 | 26.7 | 30.2 | – | – | – |
| GUAGCAUACCGAGGAUAUUCAAACCGGAAACGGACAUGAGGAUCACCCAUGUGGCGAAAGCCUUGGGAGAAGGCGGAAUGCUAC [Xeonanis - 20 Mod76] (Eterna round: R96, puzzle: Same State NG 2) | – | – | – | 6.08 | 21.7 | 19.1 |
| AACAGUCGGCGAGGAUAUGGACGUACGGACUAACCCGCGCGGCUCACAUGAGGAUCACCCAUGUUCUAGAAGGCGCCACUGAAA [Xeorendi] (Eterna round: R96, puzzle: Same State NG 2) | – | – | – | 13.8 | 45.3 | 50.9 |
| UUAAUGAAGUAAGGAUAUACAUGAGGAUCUCUCGUAGAAGGUACUAUACAUGAGGAUCACCCAUGUGCCGGUCCGUAGACUGGA [JL SSNG1 1.04] (Eterna round: R96, puzzle: Same State NG 1) | – | – | – | 708 | 180 | 1280 |
| GUGGUCAGACAUGAGGAUCACCCAUGUGGAAUAAAUAAGGUUUAGGAUAUGGAAUAUAGGAUAUACCAGAAGGAAGGGUUGGUG (Eterna round: R96, puzzle: Same State NG 3) | – | – | – | – | 95.2 | – |
| AUAAGUUUGAUGCUCGUCUCUCCGUACGGACAUGAGGAUCACCCAUGUAGUCGGGAAGUAGCCCGGCCAGUAUGGCC [Soveerre] (puzzle: Sensor for hsa-mir-208a) | 32.6 | 22.3 | 22.9 | – | – | – |
| GUUACAUGAGGAUCACCCAUGUAUGUGUGGGAGUAAGUGUCUUAGGAUAUCUAUUAUUUAAUUAAAGAGAAGGAAGAUUGUUGU [JMF's solution 25] (Eterna round: R96, puzzle: Same State NG 3) | – | – | – | 115 | 81.2 | 102 |
| GGUAGGUUACUACCAAUCUACAUGAGGAUCACCCAUGUGUAGGAGGAUAUGGUACCUAUUUGGUACCAGAAGGCCUAAUUAAUU [Fiskers NG3ss - 9] (Eterna round: R96, puzzle: Same State NG 3) | – | – | – | 117 | 96.7 | 111 |
| CAAUAAUGUGGAGGAUAUGGGAGGUCAACACAUGAGGAUCACCCAUGUAGAUAGUGAGGCCAAGCCUAGAAGGCCACAAUCAGC [Eternabot solution 20] (Eterna round: R96, puzzle: Same State NG 2) | – | – | – | 12.6 | 65.5 | 95.9 |
| UCUUGGUUUUUGCUCGUUUUUUGUGUUGAACAUGAGGAUCACCCAUGUAUUGUACAAUCCGGUUUGAUGAUGGUCCA [JMF 47] (Eterna round: R96, puzzle: Sensor for hsa-mir-208a) | – | – | – | 125 | 55.5 | 115 |
| CAGCGCUGUCGAGAGGAUAUGCGGUGAUGGACAUGAGGAUCACCCAUGUUAGCGACAGCAUCACGGCAGAAGGCUCUACCGCUGC [Soteed Omei mod 18] (Eterna round: R96, puzzle: Same State 2) | – | – | – | 19.9 | 24.1 | 60.7 |
